According to patent US9725702B2, “Laccase from ganoderma lucidum capable of enhancing enzymatic degradation of lignocellulolytic biomass” (DANMARKS TEKNISKE UNIVERSITET, priority 2012, dated 2017):

What was measured:
[1] = Laccase-cellulase catalyzed hydrolysis of pretreated biomass, glucose release; type: biochemical; settings: with cellulase 1 or 2, pH 5.1, 50° C., 30 hour, p<0.05
Protocol: FIG. 14. A graphical comparison of glucose released over time during hydrolysis of pre-treated barley straw at pH 5.1 and 50° C. by each of commercial enzyme preparations Cellulase 1 (CC2) [A]; or Cellulase 2 [B], either alone, or in combination with a laccase enzyme; the tested laccases being respectively LacGL1 and GLlac1 (LacJooSS; Q9HG17) derived from G. lucidum; and laccases derived from Agaricus bisporus (Sigma 40452), Pleurotus ostreatus (Sigma 75117) and, Trametes versicolor (Sigma 51639).
The commercial fungal laccases were purchased as lyophilized protein samples from Sigma Aldrich. A solution of each of the above 5 laccases was prepared in a citric buffer containing 20% of glycerol (pH 5.1, 100 mM).
Two different commercially available cellulase enzyme preparations used in the comparative study were “Cellulase 1” and “Cellulase 2”, which were tested in combination with each of the laccases listed above.
The three different types of pretreated biomass used in the comparative study were sugarcane bagasse, barley straw and wheat straw. The source and pre-treatment of the sugarcane bagasse by steam explosion was as set out in Example 9. […] The composition of the dry and the pretreated biomass were determined according to the US National Renewable Energy Laboratory (NREL) procedures (Sluiter et al, 2010).
The laccase-cellulase catalyzed hydrolysis of the pretreated biomass samples to release glucose was performed as follows: Hydrolysis of 5% (w/v) samples of pretreated sugarcane bagasse, barley straw, and wheat straw biomass were assayed using an Enzyme/Substrate (E/S) ratio of 0.064% w/w for laccases and of 0.4% w/w for each commercial cellulase preparation in each hydrolysis reaction. The E/S dosage was based on the total protein concentration used, as determined using Pierce BCA (BiCinchoninic Acid) protein assay kit microplate procedure according to manufacturer's instruction (Thermo Fisher Scientific, Rockford, US). […]
Laccase and cellulase-mediated hydrolysis of the 3 biomass forms, measured as glucose release, are shown graphically in FIGS. 13, 14 and 15. […]

[2] = Glucose release in LacGL1-cellulase (Cellic CTec1, CTec2) catalyzed hydrolysis of STEX SCB; type: biochemical
Protocol: FIG. 11. A graphical comparison of yields of released glucose over time in LacGL1-Cellic® CTec1 catalyzed hydrolysis STEX-SCB at different pH and temperatures. The cellulase preparation is Cellic® CTec1 (CC1) and laccase was Ganoderma lucidum LacGL1 expressed in Pichia pastoris X-33. CC1 and LacGL1 were added in E/S ratio of 0.064%, and 0.4% (w/w), respectively.
FIG. 12. A graphical comparison of the yields of released glucose over time in LacGL1-Cellic® CTec2 catalyzed hydrolysis of STEX-SCB at different pH and temperatures. The cellulase preparation is Cellic® CTec2 (CC2) and laccase was Ganoderma lucidum LacGL1 expressed in Pichia pastoris X-33. […] and LacGL1 were added in E/S ratio of 0.064%, and 0.4% (w/w), respectively.
5% (w/v) dry matter of pretreated SCB (STEX SCB) was evaluated in 0.1 M citrate-phosphate buffer at pH 4.7 and 40° C. (optimal for the LacGL1 laccase) or pH 5.1 and 50° C. (optimal for the cellulase preparations), respectively. The commercially available cellulase cocktail preparations: Cellic® CTec1 and Cellic® CTec2 (0.064% Enzyme/Substrate ratio (E/S), w/w; Novozymes, Bagsværd, Denmark) were used with the combination of the LacGL1 laccase (0.4% E/S, w/w). The hydrolysis reactions were collected after 0, 1, 3, 5, 16, and 24 hours and stopped by incubation at 99° C. for 15 min. The samples were then centrifuged at 10.000 rpm for 2 min., the supernatants were filtered through 0.2 μm filter and the yields of released glucose were quantified using the D-glucose-HK kit (Megazyme, Denmark). The glucose yields released over time were corrected for the glucose content of the hydrolysis sample at time 0. The E/S dosage was based on the total protein concentration used. The protein quantification was performed using the Pierce BCA (BiCinchoninic Acid) protein assay kit microplate procedure according to manufacturer's instructions (Thermo Fisher Scientific, Rockford, US) using Bovine serum albumin (BSA) was used as a standard, as described before (Silva et al. 2011). The Cellic® CTec1 (CC1) and Cellic® CTec2 (CC2), cellulase preparations, are based on the Trichoderma reesei cellulase complex (exo-glucanase, endo-glucanase, and β-glucosidase activities) with additional β-glucosidase and glycoside hydrolase family 61 hydrolyse boosting proteins (Harris 2010). All determinations of the enzymatic hydrolysis samples were performed in duplicates.
Release of glucose during cellulose hydrolysis of STEX SCB is enhanced by the addition of LacGL1 laccase in a dosage dependent manner (data not shown). The combined laccase plus cellulase treatment of STEX SCB were performed at two different conditions: Firstly, at […], 40° C. which is optimal for the LacGL1 laccase (as previously shown from MODDE pH-temp.-activity model, FIG. 8 and thermal stability plots, FIGS. 9, 10), which are slightly less optimal for cellulases; and secondly at 50° C. and pH 5.1, which are the golden standard conditions for optimal performance of CC1 and CC2. From the MODDE data, […]: the type of the cellulase preparation, the addition of LacGL1, the temperature, and the pH of the reaction (FIG. 11, 12). Overall, the highest rate of STEX SCB hydrolysis, considering all of the aforementioned factors, was obtained for the combination of LacGL1-Cellic® CTec2 at pH 5.1 and 50° C. […] The higher pH and temperature enhanced LacGL1-CC2 catalyzed hydrolysis by 12% (FIG. 12).

glucose release compared to GLlac1 [1]: significantly greater | glucose release compared to the other tested laccases [1]: significantly enhanced | total glucose yield higher than CC2 alone ([2]; LacGL1-Cellic CTec2 at pH 5.1, 50° C. vs CC2 alone at pH 4.6, 40° C.): 27.5% | total glucose yield higher than CC2 alone ([2]; LacGL1-Cellic CTec2 at pH 5.1, 50° C. vs CC2 alone under the same conditions): 19% | enhancement of LacGL1-CC2 catalyzed hydrolysis by higher pH and temperature ([2]; pH 5.1, 50° C. vs pH 4.6, 40° C.): 12%
B1: LacGL1: Fungal laccase from Ganoderma lucidum CBS229.93 (SEQ ID NO: 5/9), recombinantly expressed in Pichia pastoris X-33 (protein, listed as Ganoderma lucidum)
chain: GIGPKTDLTISNADVAPDGYTRAAVVVNGVFPAPLITGNKGDRFQLNVIDQMTNHTMLKSTSIHWHGFFQKGTNWADGPAFINQCPISSGHSFLYDFQVPDQAGTFWYHSHLSTQYCDGLRGPFVVYDPKDPLKKLYDIDDDSTVITLTDWYHVAARLGPRFPLGSDSTLINGLGRSTTNVTADLAVINVTQGKRYRFRLVSLSCDPNYTFSIDDHNMTVIEADGIETQPVTVNAIQIFSAQRYSFVLTANQTIDNYWIRANPNFGNVGFTDGINSAILRYAGADPVEPTTSQQTTQNLLNEVDLHPFVPKRTPGQPTQGGVDTAINMVFNFNGSNFFINNASFVPPTVPVLLQILSGAQAAQDLLPSGSVYTLPVNKSIELTFPATANAPGAPHPFHLHGHAFAVVRSAGSTVYNYDNPVWRDVVSTGTPAAGDNVTIRFQTDNPGPWFLHCHIDFHLEAGFAVVFAEDPTDTSLANPVPKAWSDLCPTYDALSVDDQ
modifications: mat_peptide (1)..(499) Mature LacGL1 laccase (minus signal peptide)
improvement in glucose yields over CC1 at pH 5.1 and 50° C. ([2]; LacGL1-CC1 at pH 4.6, 40° C.): 66% | improvement in glucose yields over LacGL1-CC1 at pH 5.1 and 50° C. ([2]; LacGL1-CC1 at pH 4.6, 40° C.): 48% | enhancement of CC1 mediated-hydrolysis ([2]; pH 4.6, 40° C.): 30%
